Measurements reported in US20260209355.
Changes are numbered by the printed parent chain.

T1: c-Myc conjugated and biotinylated human CD28 stalk region dimeric peptide (wild-type)
T1 chain: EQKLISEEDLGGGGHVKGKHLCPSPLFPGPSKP

T2: quenched fluorogenic peptide of the human CD28 stalk region (WT)
T2 chain: KGKHLSPSPLFPGPSKPE

T3: L145K mutated biotinylated and Myc tagged human CD28 stalk region dimeric peptide
T3 chain: T1 chain with L26K

B1: Recombinant human MMP-2 (protein)
chain: YNFFPRKPKWDKNQITYRIIGYTPDLDPETVDDAFARAFQVWSDVTPLRFSRIHDGEADIMINFGRWEHGDGYPFDGKDGLLAHAFAPGTGVGGDSHFDDDELWTLGEGQVVRVKYGNADGEYCKFPFLFNGKEYNSCTDTGRSDGFLWCSTTYNFEKDGKYGFCPHEALFTMGGNAEGQPCKFPFRFQGTSYDSCTTEGRTDGYRWCGTTEDYDRDKKYGFCPETAMSTVGGNSEGAPCVFPFTFLGNKYESCTSAGRSDGKMWCATTANYDDDRKWGFCPDQGYSLFLVAAHEFGHAMGLEHSQDPGALMAPIYTYTKNFRLSQDDIKGIQELYGASPDIDLGTGPTPTLGPVTPEICKQDIVFDGIAQIRGEIFFFKDRFIWRTVTPRDKPMGPLLVATFWPELPEKIDAVYEAPQEEKAVFFAGNEYWIYSASTLERGYPKPLTSLGLPPDVQRVDAAFNWSKNKKTYIFAGDKFWRYNEVKKKMDPGFPKLIADAWNAIPDNLDAVVDLQGGGHSYFFKGAYYLKLENQSLKSVKFGSIKSDWLGC
B2: Recombinant human ADAM-10 (protein)
chain: TTSAEKNTCQLYIQTDHLFFKYYGTREAVIAQISSHVKAIDTIYQTTDFSGIRNISFMVKRIRINTTADEKDPTNPFRFPNIGVEKFLELNSEQNHDDYCLAYVFTDRDFDDGVLGLAWVGAPSGSSGGICEKSKLYSDGKKKSLNTGIITVQNYGSHVPPKVSHITFAHEVGHNFGSPHDSGTECTPGESKNLGQKENGNYIMYARATSGDKLNNNKFSLCSIRNISQVLEKKRNNCFVESGQPICGNGMVEQGEECDCGYSDQCKDECCFDANQPEGRKCKLKPGKQCSPSQGPCCTAQCAFKSKSEKCRDDSDCAREGICNGFTALCPASDPKPNFTDCNRHTQVCINGQCAGSICEKYGLEECTCASSDGKDDKELCHVCCMKKMDPSTCASTGSVQWSRHFSGRTITLQPGSPCNDFRGYCDVFMRCRLVDADGPLARLKKAIFSPELYENIAE

Key:
[1] = target: T1, c-Myc conjugated and biotinylated human …
[2] = target: T2, quenched fluorogenic peptide of the …
[3] = target: T3, L145K mutated biotinylated and Myc …
[4] = target: quenched fluorogenic peptide of the human CD28 stalk region with L145K

Row | Protein | intact peptide by anti-Myc ELISA (25 and 50 ng enzyme, 5 hours) [1] | fluorescence from cleavage of quenched fluorogenic peptide [2] | fluorescence from cleavage of quenched fluorogenic peptide (2.5 µM peptide, 30 ng enzyme) [2] | fluorescence from cleavage of quenched fluorogenic peptide, titration of protease [2] | percent of peptide cleaved (intact peptide by anti-Myc ELISA, 25 and 50 ng enzyme, 5 hours) [3] | fluorescence from cleavage of quenched fluorogenic peptide (2.5 µM peptide, 30 ng enzyme) [4]
1 | B1 | the WT peptide was cleaved in a dose dependent manner | MMP-2 cleaves the stalk domain peptide | both enzymes efficiently cleaved the WT peptide | the cleavage of the peptide was dose dependent | the mutated peptide was not substantially cleaved (<5%) by either MMP-2 or MMP-13 | both were completely incapable of cleaving the mutant peptide
2 | B2 | – | ADAM-10 and ADAM-17 did not | – | – | – | –
